Laboratory results published in patent publication US20210292396A1.

Columns and labels:
Assay in all cases: cell-based or functional assay
[1] = molecular target: Env of HIV isolate 57128.vrc15 (clade D) (HIV)
[2] = molecular target: Env of HIV isolate 6540.v4.c1 (clade AC) (HIV)
[3] = molecular target: Env of HIV isolate TZBD.02 (clade C) (HIV)
[4] = molecular target: HIV Env of isolate DU422.01 (HIV)
[5] = molecular target: Env of HIV isolate ZM233.6 (clade C) (HIV)
[6] = molecular target: HIV Env of isolate MW965.26 (HIV)
[7] = molecular target: Env of HIV isolate 0330.v4.c3 (clade A) (HIV)
[8] = molecular target: Env of HIV isolate 3468.v1.c12 (clade AD) (HIV)
[9] = molecular target: HIV Env of isolate 231965.c01 (HIV)
[10] = molecular target: Env of HIV isolate T266-60 (clade AG) (HIV)
[11] = molecular target: Env of HIV isolate ZA012.29 (clade C) (HIV)
[12] = molecular target: HIV Env of isolate CNE40 (HIV)
[13] = molecular target: Env of HIV isolate BX08.16 (clade B) (HIV)
[14] = molecular target: HIV Env of isolate CH117.4 (HIV)
[15] = molecular target: Env of HIV isolate CNE59 (clade AE) (HIV)
[16] = molecular target: HIV Env of isolate CH070.1 (HIV)
[17] = molecular target: Env of HIV isolate UG021.16 (clade D) (HIV)
[18] = molecular target: HIV Env of isolate ZM135.10a (HIV)
[19] = molecular target: Env of HIV isolate CAP45.G3 (clade C) (HIV)
[20] = molecular target: HIV Env of isolate ZM106.9 (HIV)
[21] = molecular target: Env of HIV isolate TH976.17 (clade AE) (HIV)
[22] = molecular target: Env of HIV isolate 7165.18 (clade B) (HIV)
[23] = molecular target: Env of HIV isolate BJOX002000.03.2 (clade BC) (HIV)
[24] = molecular target: Env of HIV isolate CNE58 (clade C in Table 7) (HIV)
[25] = molecular target: Env of HIV isolate QH209.14M.A2 (clade A) (HIV)
[26] = molecular target: Env of HIV isolate CNE8 (clade AE) (HIV)
[27] = molecular target: Env of HIV isolate 3637.v5.c3 (clade C) (HIV)
[28] = molecular target: Env of HIV isolate 263-8 (clade AG) (HIV)
[29] = molecular target: Env of HIV isolate 269-12 (clade AG) (HIV)
[30] = molecular target: Env of HIV isolate CNE57 (clade B) (HIV)
[31] = molecular target: Env of HIV isolate C2101.c1 (clade AE) (HIV)
[32] = molecular target: Env of HIV isolate KER2018.11 (clade A) (HIV)
[33] = molecular target: Env of HIV isolate 16845-2.22 (clade C) (HIV)
[34] = molecular target: Env of HIV isolate BL01.DG (clade B) (HIV)
[35] = molecular target: Env of HIV isolate MN.3 (clade B) (HIV)
[36] = molecular target: Env of HIV isolate BS208.B1 (clade A) (HIV)
[37] = molecular target: HIV Env of isolate 6838.v1.c35 (HIV)
[38] = molecular target: Env of HIV isolate CNE56 (clade AE) (HIV)
[39] = molecular target: HIV Env of isolate Ce1176.A3 (HIV)
[40] = molecular target: Env of HIV isolate M02138 (clade AE) (HIV)
[41] = molecular target: HIV Env of isolate 247-23 (HIV)
[42] = molecular target: HIV Env of isolate A07412M1.vrc12 (HIV)
[43] = molecular target: HIV Env of isolate ZM214.15 (HIV)
[44] = molecular target: Env of HIV isolate CAP210.E8 (clade C) (HIV)
[45] = molecular target: Env of HIV isolate Q259.17 (clade A) (HIV)
[46] = molecular target: Env of HIV isolate 3589.v1.c4 (clade AC) (HIV)
[47] = molecular target: HIV Env of isolate CNE31 (HIV)
[48] = molecular target: Env of HIV isolate RHPA.7 (clade B) (HIV)
[49] = molecular target: Env of HIV isolate 235-47 (clade AG) (HIV)
[50] = molecular target: Env of HIV isolate T257-31 (clade AG) (HIV)

B1: ePGT121.18.17 (ePGT121.18.H17 VH and ePGT121.17.L1 VL) (antibody, V domains shown)
VH: QMQLQESGPGLVKPGETLSLTCSVSGASISSSYWSWLRETPGKGLEWIGYTHHSGDTNYAPSLKSRVTIGLDPSKNQVSLSLTSVTAADTAVYYCARTLHGRRIYGVVAFNEYYTYFYWPTWGKGTQVTVSS
VL: SDISVAPGETVRITCGGESIGSRAVQWYQHRPGQAPRLIIYNNQDRPPGIPERFSGSPDIDFGTTATLTISNVEAGDEATYYCHIWDSRRPTNWELGPGTTLTVL
In the case of B1, the IC50, pseudovirus neutralization [1] is reported as 0.012 µg/mL, the IC50, pseudovirus neutralization [2] is reported as > 50 µg/mL and the IC50, pseudovirus neutralization [3] is reported as 0.003 µg/mL. It also gave an IC80, pseudovirus neutralization [4] of 0.036 µg/mL, an IC50, pseudovirus neutralization [5] of 0.017 µg/mL and an IC80, pseudovirus neutralization [6] of 0.011 µg/mL. The IC50, pseudovirus neutralization [7] was 0.012 µg/mL, the IC50, pseudovirus neutralization [8] was 0.004 µg/mL and the IC80, pseudovirus neutralization [9] was > 50 µg/mL. For the same binder, the IC50, pseudovirus neutralization [10] was 0.014 µg/mL, the IC50, pseudovirus neutralization [11] was 0.005 µg/mL and the IC80, pseudovirus neutralization [12] was 0.13 µg/mL. For the same binder, the IC50, pseudovirus neutralization [13] was 0.004 µg/mL, the IC80, pseudovirus neutralization [14] was > 50 µg/mL and the IC50, pseudovirus neutralization [15] was > 50 µg/mL. The IC80, pseudovirus neutralization [16] was 0.007 µg/mL, the IC50, pseudovirus neutralization [17] was 0.013 µg/mL and the IC80, pseudovirus neutralization [18] was 0.78 µg/mL. The IC50, pseudovirus neutralization [19] was 8.91 µg/mL, the IC80, pseudovirus neutralization [20] was 0.008 µg/mL and the IC50, pseudovirus neutralization [21] was > 50 µg/mL. It also gave an IC50, pseudovirus neutralization [22] of 0.006 µg/mL, an IC50, pseudovirus neutralization [23] of 0.004 µg/mL and an IC50, pseudovirus neutralization [24] of 0.053 µg/mL. The IC50, pseudovirus neutralization [25] was > 50 µg/mL, the IC50, pseudovirus neutralization [26] was > 50 µg/mL and the IC50, pseudovirus neutralization [27] was > 50 µg/mL. The IC50, pseudovirus neutralization [28] was 0.02 µg/mL, the IC50, pseudovirus neutralization [29] was 0.01 µg/mL and the IC50, pseudovirus neutralization [30] was 0.006 µg/mL. The IC50, pseudovirus neutralization [31] was > 50 µg/mL, the IC50, pseudovirus neutralization [32] was > 50 µg/mL and the IC50, pseudovirus neutralization [33] was 0.232 µg/mL. For the same binder, the IC50, pseudovirus neutralization [34] was 1.51 µg/mL, the IC50, pseudovirus neutralization [35] was 0.004 µg/mL and the IC50, pseudovirus neutralization [36] was > 50 µg/mL. For the same binder, the IC80, pseudovirus neutralization [37] was 4.34 µg/mL, the IC50, pseudovirus neutralization [38] was > 50 µg/mL and the IC80, pseudovirus neutralization [39] was 0.017 µg/mL. For the same binder, the IC50, pseudovirus neutralization [40] was > 50 µg/mL, the IC80, pseudovirus neutralization [41] was > 50 µg/mL and the IC80, pseudovirus neutralization [42] was 0.011 µg/mL. For the same binder, the IC80, pseudovirus neutralization [43] was 0.294 µg/mL, the IC50, pseudovirus neutralization [44] was 0.124 µg/mL and the IC50, pseudovirus neutralization [45] was > 50 µg/mL. For the same binder, the IC50, pseudovirus neutralization [46] was 2.73 µg/mL, the IC80, pseudovirus neutralization [47] was 0.25 µg/mL and the IC50, pseudovirus neutralization [48] was 0.004 µg/mL. The IC50, pseudovirus neutralization [49] was 0.022 µg/mL and the IC50, pseudovirus neutralization [50] was > 50 µg/mL.

B2: ePGT121.15 (ePGT121.15.H6 VH and ePGT121.15.L1 VL) (antibody, V domains shown)
VH: QMQLQESGPGLVKPGETLSLTCSVSGASISSSYWSWLRETPGKGLEWIGYTHHSGDTNYAPSLKSRVHLGLHPSKNQVSLSLTSVTAADTAVYYCARTLHGRRIYGVVAFNEFFTYFYWEVWGKGTQVTVSS
VL: SDISVAPGETVRISCGGESIGSRAVQWYQHRAGQAPKLIIYNNQDRPPGIPERFSGSPDIDFGTTATLTITNVEAGDEATYYCHIWDSRRPTNWVFGGGTTLTVL
With B2 the IC50, pseudovirus neutralization [1] was 0.007 µg/mL, the IC50, pseudovirus neutralization [2] was > 50 µg/mL and the IC50, pseudovirus neutralization [3] was 0.003 µg/mL. The IC80, pseudovirus neutralization [4] was 0.022 µg/mL, the IC50, pseudovirus neutralization [5] was 0.016 µg/mL and the IC80, pseudovirus neutralization [6] was 0.009 µg/mL. The IC50, pseudovirus neutralization [7] was 0.006 µg/mL, the IC50, pseudovirus neutralization [8] was 0.002 µg/mL and the IC80, pseudovirus neutralization [9] was > 50 µg/mL. The IC50, pseudovirus neutralization [10] was 0.006 µg/mL, the IC50, pseudovirus neutralization [11] was 0.004 µg/mL and the IC80, pseudovirus neutralization [12] was 0.082 µg/mL. For the same binder, the IC50, pseudovirus neutralization [13] was 0.004 µg/mL, the IC80, pseudovirus neutralization [14] was > 50 µg/mL and the IC50, pseudovirus neutralization [15] was > 50 µg/mL. The IC80, pseudovirus neutralization [16] was 0.004 µg/mL, the IC50, pseudovirus neutralization [17] was 0.006 µg/mL and the IC80, pseudovirus neutralization [18] was 0.508 µg/mL. For the same binder, the IC50, pseudovirus neutralization [19] was 2.25 µg/mL, the IC80, pseudovirus neutralization [20] was 0.006 µg/mL and the IC50, pseudovirus neutralization [21] was > 50 µg/mL. The IC50, pseudovirus neutralization [22] was 0.003 µg/mL, the IC50, pseudovirus neutralization [23] was 0.003 µg/mL and the IC50, pseudovirus neutralization [24] was 0.023 µg/mL. For the same binder, the IC50, pseudovirus neutralization [25] was > 50 µg/mL, the IC50, pseudovirus neutralization [26] was > 50 µg/mL and the IC50, pseudovirus neutralization [27] was > 50 µg/mL. It also gave an IC50, pseudovirus neutralization [28] of 0.014 µg/mL, an IC50, pseudovirus neutralization [29] of 0.011 µg/mL and an IC50, pseudovirus neutralization [30] of 0.004 µg/mL. The IC50, pseudovirus neutralization [31] was > 50 µg/mL, the IC50, pseudovirus neutralization [32] was > 50 µg/mL and the IC50, pseudovirus neutralization [33] was 0.077 µg/mL. For the same binder, the IC50, pseudovirus neutralization [34] was 13.1 µg/mL, the IC50, pseudovirus neutralization [35] was 0.004 µg/mL and the IC50, pseudovirus neutralization [36] was > 50 µg/mL. For the same binder, the IC80, pseudovirus neutralization [37] was 1.34 µg/mL, the IC50, pseudovirus neutralization [38] was > 50 µg/mL and the IC80, pseudovirus neutralization [39] was 0.01 µg/mL. For the same binder, the IC50, pseudovirus neutralization [40] was > 50 µg/mL, the IC80, pseudovirus neutralization [41] was > 50 µg/mL and the IC80, pseudovirus neutralization [42] was 0.012 µg/mL. For the same binder, the IC80, pseudovirus neutralization [43] was 0.126 µg/mL, the IC50, pseudovirus neutralization [44] was 0.052 µg/mL and the IC50, pseudovirus neutralization [45] was > 50 µg/mL. It also gave an IC50, pseudovirus neutralization [46] of 0.229 µg/mL, an IC80, pseudovirus neutralization [47] of 0.147 µg/mL and an IC50, pseudovirus neutralization [48] of 0.003 µg/mL. For the same binder, the IC50, pseudovirus neutralization [49] was 0.009 µg/mL and the IC50, pseudovirus neutralization [50] was > 50 µg/mL.
